The values below come from PMC4991212 (Cell, 2016).

The assay has as its target APC2 (cullin subunit of APC/C) (human, UniProt Q9UJX6 1-822). Briefly: cryo-EM structure.

B1: UBE2C (C102A), catalytic Cys only version, in the multiubiquitination trap (enzyme, human, UniProt O00762 1-179, looked up)
chain: MASQNRDPAATSVAAARKGAEPSGGAARGPVGKRLQQELMTLMMSGDKGISAFPESDNLFKWVGTIHGAAGTVYEDLRYKLSLEFPSGYPYNAPTVKFLTPAYHPNVDTQGNICLDILKEKWSALYDVRTILLSIQSLLGEPNIDSPLNTHAAELWKNPTAFKKYLQETYSKQVTSQEP
modifications: active site Cys joined to the TMEA crosslinker
As to B1, the binding result was “binds”.
